This assay deals with T1, EPO receptor (EPOR) on TF-1 cells (human, UniProt P19235 25-508).
T1 sequence (looked up): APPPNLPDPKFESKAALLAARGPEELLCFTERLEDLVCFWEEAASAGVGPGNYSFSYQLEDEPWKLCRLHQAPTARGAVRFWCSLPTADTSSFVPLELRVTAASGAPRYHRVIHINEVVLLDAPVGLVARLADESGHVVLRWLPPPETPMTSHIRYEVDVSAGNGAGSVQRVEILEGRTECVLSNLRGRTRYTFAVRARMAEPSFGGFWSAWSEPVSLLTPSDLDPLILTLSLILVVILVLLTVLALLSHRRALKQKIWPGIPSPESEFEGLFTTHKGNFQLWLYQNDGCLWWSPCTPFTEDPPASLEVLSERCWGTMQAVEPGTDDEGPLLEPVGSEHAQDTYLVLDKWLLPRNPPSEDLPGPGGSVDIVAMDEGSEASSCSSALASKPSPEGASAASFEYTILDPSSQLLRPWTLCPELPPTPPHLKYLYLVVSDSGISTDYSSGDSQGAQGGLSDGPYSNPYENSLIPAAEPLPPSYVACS
The experiment in a line: cell-based or functional assay.

On to “Darbepoetin (Aranesp), hyperglycosylated EPO (ligand)”, for which the EC50 relative to epoetin alfa, TF-1 cell proliferation stood at 14.2 fold.
